Assay results reported in patent US20240060046A1.

Target: CD20 on CD20+ human Burkitt's lymphoma cell lines (Ramos, Raji) (human) (UniProt P11836)
Experiment: cell-based or functional assay

Sequence of UniProt P11836 (P11836 whole entry): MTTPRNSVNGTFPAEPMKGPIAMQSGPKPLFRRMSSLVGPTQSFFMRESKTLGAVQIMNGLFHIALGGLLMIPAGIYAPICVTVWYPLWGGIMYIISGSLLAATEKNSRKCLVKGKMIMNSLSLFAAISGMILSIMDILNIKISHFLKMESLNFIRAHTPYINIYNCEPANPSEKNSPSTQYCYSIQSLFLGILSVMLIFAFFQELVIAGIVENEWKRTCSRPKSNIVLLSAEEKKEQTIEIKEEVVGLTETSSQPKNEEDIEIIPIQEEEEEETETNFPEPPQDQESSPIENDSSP

Substance: Rituximab (Mabthera or Rituxan) (antibody)
- Viable Raji cells (%), long-term ADCC, AB-101 + RTX, 24 hrs (mean of 9 AB-101 batches): 23.9%
- Viable Raji cells (%), long-term ADCC, AB-101 + RTX, 48 hrs (mean of 9 AB-101 batches): 11.7%
- Viable Raji cells (%), long-term ADCC, AB-101 + RTX, 72 hrs (mean of 9 AB-101 batches): 10.1%
- Viable Ramos cells (%), long-term ADCC, AB-101 + RTX, 24 hrs (mean of 9 AB-101 batches): 47.6%
- Viable Ramos cells (%), long-term ADCC, AB-101 + RTX, 48 hrs (mean of 9 AB-101 batches): 28.1%
- Viable Ramos cells (%), long-term ADCC, AB-101 + RTX, 72 hrs (mean of 9 AB-101 batches): 19%
- lysis of Raji target cells at the end of 72 hour co-culture, AB-101 combined with rituximab, E:T 1:1: 90%
- lysis of Ramos target cells at the end of 72 hrs co-culture, AB-101 combined with rituximab, E:T 1:1: 80%
